Measured values: patent US20050244448A1

Biological target: total elastase activity of relaxin-stimulated cultured SUI vaginal fibroblasts
Assay: cell-based or functional assay

inhibition of total elastase activity: 98%
Substance: alpha-1 antitrypsin (from UniProt P01009 25-418)
